Results taken from article PMC10786891, “Massively parallel profiling of RNA-targeting CRISPR-Cas13d”.
Substitutions are numbered along the chain they refer to. In names and notes the source's numbering stands.

T1: EsCas13d, nuclease-dead (Eubacterium siraeum, UniProt B0MS50, R295A;H300A;R849A;H854A)
T1 sequence: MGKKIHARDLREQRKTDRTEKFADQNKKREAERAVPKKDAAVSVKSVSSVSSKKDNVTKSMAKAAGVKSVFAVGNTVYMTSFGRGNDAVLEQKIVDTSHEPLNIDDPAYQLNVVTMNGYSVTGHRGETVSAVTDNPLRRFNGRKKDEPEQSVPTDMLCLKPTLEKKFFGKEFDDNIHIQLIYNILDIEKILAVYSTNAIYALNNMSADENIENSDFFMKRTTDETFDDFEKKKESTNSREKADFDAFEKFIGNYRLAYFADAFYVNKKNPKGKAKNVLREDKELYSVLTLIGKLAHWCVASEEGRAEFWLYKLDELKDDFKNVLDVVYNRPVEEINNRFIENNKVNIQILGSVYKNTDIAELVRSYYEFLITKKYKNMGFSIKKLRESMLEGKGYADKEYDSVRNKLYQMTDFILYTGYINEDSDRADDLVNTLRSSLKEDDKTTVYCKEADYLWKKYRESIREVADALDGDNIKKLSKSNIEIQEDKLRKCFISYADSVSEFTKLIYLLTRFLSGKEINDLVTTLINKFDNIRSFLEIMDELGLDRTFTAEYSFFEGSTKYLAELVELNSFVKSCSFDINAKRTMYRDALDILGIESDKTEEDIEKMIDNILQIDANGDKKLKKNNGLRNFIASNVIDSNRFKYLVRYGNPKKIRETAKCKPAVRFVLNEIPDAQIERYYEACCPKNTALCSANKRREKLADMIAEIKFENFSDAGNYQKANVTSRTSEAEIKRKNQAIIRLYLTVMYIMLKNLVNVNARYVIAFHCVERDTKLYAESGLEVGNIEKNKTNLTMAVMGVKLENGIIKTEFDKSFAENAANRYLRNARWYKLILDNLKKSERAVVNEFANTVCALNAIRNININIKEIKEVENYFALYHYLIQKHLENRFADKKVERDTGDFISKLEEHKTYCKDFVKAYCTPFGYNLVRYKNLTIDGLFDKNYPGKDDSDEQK

B1: target 1 insC 3' of 22,insA 3' of 3 (mixed)
RNA 1: CACCCGUGCAAAAAUGCAGGGGUCUAAAACUGAGCGGAUAACCUCUCUAUGG
RNA 2: GGGAAUGGAUCCACAUCUACGAAUUCGUACCCAUAGAGAGGUUAUCCGCUACACCGAGAUCGGAAGAGCACACGU
B2: target 1 insG 3' of 10,insC 3' of 1 (mixed)
RNA 1: B1 RNA 1
RNA 2: GGGAAUGGAUCCACAUCUACGAAUUCGUACCAUAGAGAGGUUGAUCCGCUCACCCGAGAUCGGAAGAGCACACGU
B3: target 1 insG 3' of 10,insG 3' of 1 (mixed)
RNA 1: B1 RNA 1
RNA 2: B2 RNA 2 with C53G
B4: target 1 insG 3' of 10,insA 3' of 2 (mixed)
RNA 1: B1 RNA 1
RNA 2: B2 RNA 2 with C53A
B5: target 1 insG 3' of 18,insU 3' of 13 (mixed)
RNA 1: B1 RNA 1
RNA 2: GGGAAUGGAUCCACAUCUACGAAUUCGUACCAUAGGAGAGUGUUAUCCGCUCACCGAGAUCGGAAGAGCACACGU
B6: target 1 insG 3' of 18,insG 3' of 2 (mixed)
RNA 1: B1 RNA 1
RNA 2: B1 RNA 2 with C32A, A33U, U34A, A35G, A51C, C52G
B7: target 1 G15C,C21A (mixed)
RNA 1: B1 RNA 1
RNA 2: GGGAAUGGAUCCACAUCUACGAAUUCGUACAAUAGACAGGUUAUCCGCUCACCGAGAUCGGAAGAGCACACGU
B8: target 1 insC 3' of 20,insA 3' of 2 (mixed)
RNA 1: B1 RNA 1
RNA 2: B1 RNA 2 with C32A, A33C, A51C, C52A
B9: target 1 C6G,G12A (mixed)
RNA 1: B1 RNA 1
RNA 2: B7 RNA 2 with A31C, C37G, G40A, C46G
B10: target 1 insG 3' of 10,insC 3' of 10 (mixed)
RNA 1: B1 RNA 1
RNA 2: B5 RNA 2 with G36A, A37G, G38A, A39G, G42U, U43G, U44C
B11: target 1 insU 3' of 17,insU 3' of 16 (mixed)
RNA 1: B1 RNA 1
RNA 2: B5 RNA 2 with G36U, G38U, A39G, G40A, U41G
B12: target 1 insG 3' of 22,insC 3' of 19 (mixed)
RNA 1: B1 RNA 1
RNA 2: GGGAAUGGAUCCACAUCUACGAAUUCGUACGCAUCAGAGAGGUUAUCCGCUCACCGAGAUCGGAAGAGCACACGU
B13: target 1 insC 3' of 9,insC 3' of 3 (mixed)
RNA 1: B1 RNA 1
RNA 2: B2 RNA 2 with G43A, A44C, A52C, C53A
B14: target 1 C2U,G17C (mixed)
RNA 1: B1 RNA 1
RNA 2: B7 RNA 2 with A31C, G35C, C37G, C50U
B15: target 1 insG 3' of 2,insU 3' of 2 (mixed)
RNA 1: B1 RNA 1
RNA 2: GGGAAUGGAUCCACAUCUACGAAUUCGUACCAUAGAGAGGUUAUCCGCUCGUACCGAGAUCGGAAGAGCACACGU
B16: target 1 insU 3' of 18,insC 3' of 9 (mixed)
RNA 1: B1 RNA 1
RNA 2: B5 RNA 2 with G35U, U41G, G42U, U44A, A45C
B17: target 1 A1U,A16G (mixed)
RNA 1: B1 RNA 1
RNA 2: B7 RNA 2 with A31C, A36G, C37G, A51U
B18: target 1 insC 3' of 17,insA 3' of 13 (mixed)
RNA 1: B1 RNA 1
RNA 2: B5 RNA 2 with G36C, U41A
B19: target 1 A1G,A16G (mixed)
RNA 1: B1 RNA 1
RNA 2: B7 RNA 2 with A31C, A36G, C37G, A51G
B20: target 1 insG 3' of 21,insA 3' of 5 (mixed)
RNA 1: B1 RNA 1
RNA 2: B1 RNA 2 with C32G, C49A, U50C, A51U
B21: target 1 del5,del9 (mixed)
RNA 1: B1 RNA 1
RNA 2: GGGAAUGGAUCCACAUCUACGAAUUCGUACCAUAGAGAGGUUUCCCUCACCGAGAUCGGAAGAGCACACGU
B22: target 1 U3A,A18U (mixed)
RNA 1: B1 RNA 1
RNA 2: B7 RNA 2 with A31C, A34U, C37G, U49A
B23: target 1 complement block 2-4 (mixed)
RNA 1: B1 RNA 1
RNA 2: B7 RNA 2 with A31C, C37G, C48G, U49A, C50G
B24: target 1 insU 3' of 2,insU 3' of 2 (mixed)
RNA 1: B1 RNA 1
RNA 2: B15 RNA 2 with G51U
B25: target 1 insG 3' of 10,insU 3' of 1 (mixed)
RNA 1: B1 RNA 1
RNA 2: B2 RNA 2 with C53U
B26: target 1 G5U,G17C (mixed)
RNA 1: B1 RNA 1
RNA 2: B7 RNA 2 with A31C, G35C, C37G, G47U
B27: target 1 insA 3' of 21,insC 3' of 3 (mixed)
RNA 1: B1 RNA 1
RNA 2: B1 RNA 2 with C32A, A51C
B28: target 1 del8,del13 (mixed)
RNA 1: B1 RNA 1
RNA 2: B21 RNA 2 with G40U, U42A, U43C, C45G
B29: target 1 C6U,C22G (mixed)
RNA 1: B1 RNA 1
RNA 2: B7 RNA 2 with C30G, A31C, C37G, C46U
B30: target 1 insG 3' of 14,insA 3' of 3 (mixed)
RNA 1: B1 RNA 1
RNA 2: B2 RNA 2 with U41G, G43U, C51A, A52C, C53A
B31: target 1 insA 3' of 10,insA 3' of 4 (mixed)
RNA 1: B1 RNA 1
RNA 2: B2 RNA 2 with G43A, U50A, C51U, A52C, C53A
B32: target 1 G5U,G12A (mixed)
RNA 1: B1 RNA 1
RNA 2: B7 RNA 2 with A31C, C37G, G40A, G47U
B33: target 1 G15A,G17C (mixed)
RNA 1: B1 RNA 1
RNA 2: B7 RNA 2 with A31C, G35C, C37A
B34: target 1 U19A,A20C (mixed)
RNA 1: B1 RNA 1
RNA 2: B7 RNA 2 with A31C, A32C, U33A, C37G

Target: T1, EsCas13d, nuclease-dead
Experiment: crRNA (strand 1, pre-loaded); Mg2+; 40 mM Tris-HCl pH 7.5, 150 mM NaCl, 6 mM MgCl2, 1 mM DTT, 0.1% Tween-20, 0.2 mg/ml BSA; 25 C; 10 min per concentration, then washed
Conditions: tags: His6-TwinStrep-SUMO cleaved; N-terminal SNAP kept (SNAP-Surface 488); label: 3' end held by stalled T7 RNA polymerase

In order of falling Kd:
1. B26  80 ± 40 nM
2. B5  71 ± 17 nM
3. B6  ~70 nM
4. B33  62 ± 16 nM
5. B12  52 ± 8 nM
6. B7  ~50 nM
7. B16  50 ± 5 nM
8. B34  45 ± 6 nM
9. B14  42 ± 5 nM
10. B32  42 ± 5 nM
11. B11  41 ± 7 nM
12. B29  39 ± 8 nM
13. B20  37 ± 9 nM
14. B17  33 ± 7 nM
15. B22  33 ± 5 nM
16. B25  33 ± 5 nM
17. B19  32.2 ± 3 nM
18. B2  26.8 ± 2.5 nM
19. B10  23.5 ± 1.7 nM
20. B3  22.5 ± 2 nM
21. B18  22.3 ± 2.4 nM
22. B4  22.2 ± 1.4 nM
23. B28  16.1 ± 0.8 nM
24. B21  15.9 ± 0.6 nM
25. B27  13.2 ± 0.7 nM
26. B1  11.8 ± 0.5 nM
27. B30  11.4 ± 0.8 nM
28. B13  11 ± 1 nM
29. B23  11 ± 0.5 nM
30. B9  10.8 ± 0.7 nM
31. B8  10 ± 0.6 nM
32. B24  9.6 ± 0.7 nM
33. B15  8.9 ± 0.9 nM
34. B31  6.5 ± 0.4 nM
